Results as given in PMC7934869 (JCI Insight, 2021).

B1: CIS43 human monoclonal antibody (antibody, V domains shown)
VH: QVQLVQSGAEVKKPGASVKVSCKASGYTFTSYAIHWVRQAPGQRLEWMGWIKAGNGNTRYSQKFQDRVTITRDTSTTTAYMELSSLRSEDTAVYYCALLTVLTPDDAFDIWGQGTMVTVSS
VL: not shown
notes: the secreted chain begins at QVQLVQ; light chain of CIS43; IgG1 by the printed constant region; also called rCIS43; CIS43 IgG; source: Expi293 (GenScript) or CHO cells, purified (protein-A column; Superdex200 before BLI)
B2: CIS43 expressed in vivo from an AAV vector (CIS43-AAV), in mouse serum (antibody, V domains shown)
VH: B1 VH
VL: not shown
notes: synthesised and cloned into the VIP vector; human IgG1 heavy chain constant region of the VIP expression vector; light chain variable region of CIS43, as in the light chain of Dm1; human kappa light chain constant region of the VIP expression vector; Heavy and light chain are made from one transcript, separated by an F2A self-processing peptide; also called AAV-expressed CIS43; source: expressed …

How the values were obtained:
[1] = target: T1, recombinant Plasmodium falciparum circumsporozoite protein (rPfCSP) (Plasmodium falciparum 3D7, UniProt Q7K740); assay: BLI; Octet RED384; rPfCSP on the sensor, purified IgG at 2, 1, 0.5, 0.25, 0.125 ug/mL; 1:1 model; apparent affinity; conditions: both partners purified
T1 construct: full-length circumsporozoite (CS) protein of 3D7, a clone of the NF54 strain of P. falciparum; also called CS protein
T1 sequence (Q7K740 19-374): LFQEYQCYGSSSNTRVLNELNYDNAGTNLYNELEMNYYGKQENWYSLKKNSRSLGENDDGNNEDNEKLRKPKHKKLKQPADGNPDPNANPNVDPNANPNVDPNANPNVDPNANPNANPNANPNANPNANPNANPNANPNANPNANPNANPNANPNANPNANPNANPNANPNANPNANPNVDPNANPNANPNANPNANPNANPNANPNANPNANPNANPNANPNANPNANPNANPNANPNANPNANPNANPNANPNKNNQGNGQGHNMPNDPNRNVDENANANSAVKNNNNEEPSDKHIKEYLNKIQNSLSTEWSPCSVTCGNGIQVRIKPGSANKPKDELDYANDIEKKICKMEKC

[2] = target: T1, recombinant Plasmodium falciparum …; assay: BLI; Octet RED384; rPfCSP on the sensor, mouse serum 8 weeks after AAV administration with the mAb at 2, 1, 0.5, 0.25, 0.125 ug/mL; 1:1 model; apparent affinity; conditions: one partner purified

Binder	Kd [1] [nM]	Kd [2] [nM]
B1	5	
B2		2.3
